Assay results published in paper PMC3651894 (Cell, 2013).

Assays:
[1] = target: T1, full-length FLAG-tagged Dicer (F-Dicer), baculovirus/Sf9 (human, UniProt Q9UPY3 1-1922); experiment: pull-down + co-IP
[2] = target: T1, full-length FLAG-tagged Dicer …; experiment: SEC
[3] = target: F-DicerΔ3 mutant lacking the DUF283 domain (human); experiment: co-IP
[4] = target: F-DicerΔN1 lacking a part of the DEAD-box RNA helicase domain (human); experiment: co-IP
Sequence of F-DicerΔN1 lacking a part of the DEAD-box RNA helicase domain (human) (Q9UPY3 whole entry, stated change not applied, the tested form may be a part): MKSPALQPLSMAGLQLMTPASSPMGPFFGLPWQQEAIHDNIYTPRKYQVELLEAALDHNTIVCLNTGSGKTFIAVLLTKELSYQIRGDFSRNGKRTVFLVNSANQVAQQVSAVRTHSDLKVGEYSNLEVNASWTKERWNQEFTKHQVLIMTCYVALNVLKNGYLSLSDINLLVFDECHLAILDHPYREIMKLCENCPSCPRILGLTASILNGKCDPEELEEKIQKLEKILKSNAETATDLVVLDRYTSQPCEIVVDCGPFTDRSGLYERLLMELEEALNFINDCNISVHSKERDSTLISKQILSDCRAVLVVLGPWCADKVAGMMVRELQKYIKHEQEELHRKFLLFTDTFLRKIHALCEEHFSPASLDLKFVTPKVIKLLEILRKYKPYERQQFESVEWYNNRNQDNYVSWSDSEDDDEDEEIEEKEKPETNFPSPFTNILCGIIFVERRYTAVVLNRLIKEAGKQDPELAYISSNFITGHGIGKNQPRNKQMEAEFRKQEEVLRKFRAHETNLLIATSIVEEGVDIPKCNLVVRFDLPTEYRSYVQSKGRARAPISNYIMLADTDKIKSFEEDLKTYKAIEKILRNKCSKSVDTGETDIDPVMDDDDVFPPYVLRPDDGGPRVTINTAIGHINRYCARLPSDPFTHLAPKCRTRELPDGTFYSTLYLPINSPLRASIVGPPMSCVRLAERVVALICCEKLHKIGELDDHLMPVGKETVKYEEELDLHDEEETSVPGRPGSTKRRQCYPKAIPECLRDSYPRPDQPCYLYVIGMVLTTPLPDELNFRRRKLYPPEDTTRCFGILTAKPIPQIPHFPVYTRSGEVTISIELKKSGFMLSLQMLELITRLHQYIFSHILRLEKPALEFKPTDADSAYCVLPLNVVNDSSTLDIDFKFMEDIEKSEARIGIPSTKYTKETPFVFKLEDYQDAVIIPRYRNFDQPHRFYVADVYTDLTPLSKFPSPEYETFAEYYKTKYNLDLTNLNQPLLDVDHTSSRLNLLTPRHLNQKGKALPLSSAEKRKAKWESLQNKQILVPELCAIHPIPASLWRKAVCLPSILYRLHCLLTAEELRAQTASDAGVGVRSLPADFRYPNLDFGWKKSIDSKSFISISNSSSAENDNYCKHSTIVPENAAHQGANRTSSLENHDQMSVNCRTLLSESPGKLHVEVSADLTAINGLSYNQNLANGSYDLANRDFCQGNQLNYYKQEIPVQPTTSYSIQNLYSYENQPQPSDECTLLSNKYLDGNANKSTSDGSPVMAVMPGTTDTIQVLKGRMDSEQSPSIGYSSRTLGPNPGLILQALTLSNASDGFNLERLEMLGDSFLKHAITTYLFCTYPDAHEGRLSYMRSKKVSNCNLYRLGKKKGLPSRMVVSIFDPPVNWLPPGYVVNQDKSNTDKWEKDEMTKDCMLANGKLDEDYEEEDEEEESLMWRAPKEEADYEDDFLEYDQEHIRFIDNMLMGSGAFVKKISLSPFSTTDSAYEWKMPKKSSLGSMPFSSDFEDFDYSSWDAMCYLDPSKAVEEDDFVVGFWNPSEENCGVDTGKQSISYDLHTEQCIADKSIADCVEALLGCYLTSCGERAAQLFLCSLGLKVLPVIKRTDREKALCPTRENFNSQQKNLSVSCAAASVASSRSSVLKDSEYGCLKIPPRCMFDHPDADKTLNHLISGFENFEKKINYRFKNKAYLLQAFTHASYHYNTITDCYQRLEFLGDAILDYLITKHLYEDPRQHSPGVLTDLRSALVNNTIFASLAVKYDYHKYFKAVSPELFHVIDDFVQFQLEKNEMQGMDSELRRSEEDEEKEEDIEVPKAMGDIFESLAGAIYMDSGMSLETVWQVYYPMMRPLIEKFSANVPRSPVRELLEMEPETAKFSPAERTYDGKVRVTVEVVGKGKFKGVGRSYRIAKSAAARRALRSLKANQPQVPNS

T1 sequence (Q9UPY3 whole entry): as the sequence (Q9UPY3 whole entry, stated change not applied, the tested form may be a part) above
Sequence of F-DicerΔ3 mutant lacking the DUF283 domain (human) (Q9UPY3 whole entry, stated change not applied, the tested form may be a part): as above

B1: full-length HAT (histidine affinity tag)-tagged ADAR1p110 (H-ADAR1p110), baculovirus/Sf9 (natural protein, human, UniProt P55265-5 1-931, looked up)
chain: MAEIKEKICDYLFNVSDSSALNLAKNIGLTKARDINAVLIDMERQGDVYRQGTTPPIWHLTDKKRERMQIKRNTNSVPETAPAAIPETKRNAEFLTCNIPTSNASNNMVTTEKVENGQEPVIKLENRQEARPEPARLKPPVHYNGPSKAGYVDFENGQWATDDIPDDLNSIRAAPGEFRAIMEMPSFYSHGLPRCSPYKKLTECQLKNPISGLLEYAQFASQTCEFNMIEQSGPPHEPRFKFQVVINGREFPPAEAGSKKVAKQDAAMKAMTILLEEAKAKDSGKSEESSHYSTEKESEKTAESQTPTPSATSFFSGKSPVTTLLECMHKLGNSCEFRLLSKEGPAHEPKFQYCVAVGAQTFPSVSAPSKKVAKQMAAEEAMKALHGEATNSMASDNQPEGMISESLDNLESMMPNKVRKIGELVRYLNTNPVGGLLEYARSHGFAAEFKLVDQSGPPHEPKFVYQAKVGGRWFPAVCAHSKKQGKQEAADAALRVLIGENEKAERMGFTEVTPVTGASLRRTMLLLSRSPEAQPKTLPLTGSTFHDQIAMLSHRCFNTLTNSFQPSLLGRKILAAIIMKKDSEDMGVVVSLGTGNRCVKGDSLSLKGETVNDCHAEIISRRGFIRFLYSELMKYNSQTAKDSIFEPAKGGEKLQIKKTVSFHLYISTAPCGDGALFDKSCSDRAMESTESRHYPVFENPKQGKLRTKVENGEGTIPVESSDIVPTWDGIRLGERLRTMSCSDKILRWNVLGLQGALLTHFLQPIYLKSVTLGYLFSQGHLTRAICCRVTRDGSAFEDGLRHPFIVNHPKVGRVSIYDSKRQSGKTKETSVNWCLADGYDLEILDGTRGTVDGPRNELSRVSKKNIFLLFKKLCSFRYRRDLLRLSYGEAKKAARDYETAKNYFKKGLKDMGYGNWISKPQEEKNFYLCPV
stoichiometry N [1]: ~1 ADAR1 per Dicer | stoichiometry N [2]: 1 ADAR1 per Dicer | fold reduction of interaction against full-length F-Dicer [3]: < 4 fold | fold reduction of interaction against full-length F-Dicer [4]: < 4 fold
